Results taken from patent publication US20220081480A1 (Merck KGaA, published 2022).

T1: cyno TIM-3-His6 (cynomolgus monkey)
T1 construct: Made in HEK293 cells; not shown: 6-His tag
T1 chain: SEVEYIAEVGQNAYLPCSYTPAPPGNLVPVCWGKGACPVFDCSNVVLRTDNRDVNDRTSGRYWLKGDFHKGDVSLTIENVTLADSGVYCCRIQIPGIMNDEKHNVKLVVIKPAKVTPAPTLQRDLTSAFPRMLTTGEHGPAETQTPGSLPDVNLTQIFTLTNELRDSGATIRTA


Key:
[1] = molecular target: T2, wild-type TIM-3 (hu TIM-3), HEK-expressed (human, UniProt Q8TDQ0 22-202, limits assumed); experiment: SPR
T2 construct: Soluble protein of the mutagenesis study

[2] = molecular target: T3, human TIM-3 on huTIM-3-CHO-S cells (human, UniProt Q8TDQ0 22-202); experiment: FACS on CHO-S-hTIM-3 cells
T3 construct: Membrane-anchored human TIM-3 ECD (NP_116171) stably expressed on CHO-S cells; also called CHO-S-hTIM3; CHO-S-hTIM-3; not shown: membrane anchor of the expression vector, not described

[3] = molecular target: T4, human TIM-3 ECD with 6-His tag (hu TIM-3-His6) (human, UniProt Q8TDQ0 22-200); experiment: SPR (Biacore), relative to 3903E11 (VH1.0, VL1.0)
T4 construct: Novoprotein Cat# C356; the entry includes the His tag; also called hTIM3-His; human TIM3-His6

[4] = molecular target: T4, human TIM-3 ECD with 6-His tag (hu …); experiment: SPR (Biacore)
[5] = molecular target: T1, cyno TIM-3-His6; experiment: SPR (Biacore)

Row | Binder | Kd [1] [nM] | MFI at 0.1 µg/ml [2] [MFI] | MFI at 1 µg/ml [2] [MFI] | MFI at 10 µg/ml [2] [MFI] | Human TIM3 KD Ratio to Parent [3] | Kd [4] [nM] | Kd [5] [nM]
1 | 27.12E12 (antibody, V domains shown) VH: EVQLQQSGAELVRPGALVKLSCKASGFNIKDYYMYWMKQRPEQGLEWIGWIDPENVKTIYDPKFQGRATLTADTSSNTAYLQLSSLTSEDTAVYYCTRDFGYVGFFDVWGAGTTVTVSS VL: DIVMTQSQKFMSTSVGDRVSVNCKASQNVGTNVVWYQQKPGQSPKALIYSASYRYSGVPDRFTGSGSGTDFTLTISTVQSEDLAEYFCQQYNSYPLTFGGGTKLEIKR | 51.6 | – | – | – | – | – | –
2 | 3903E11 (VH1.0, VL1.1) (antibody, human IgG1, lambda, Pair-wise combination of parental heavy chain and VL1.1-CL; IgG1 lambda) heavy: not shown light: QSALTQPRSVSGSPGQSVTISCTGTSSDVGGYNYVSWYQQHPGKAPKLMIFDVSKRPSGVPDRFSGSKSGNTASLTISGLQAEDEADYYCSSYADSVVFGGGTKVTVLGQPKAAPSVTLFPPSSEELQANKATLVCLISDFYPGAVTVAWKADSSPVKAGVETTTPSKQSNNKYAASSYLSLTPEQWKSHKSYSCQVTHEGSTVEKTVAPTECS | – | 148 | 1460 | 1870 | 0.78 | 2.7 | 6.5
3 | 3903E11 (VH1.3, VL1.3) (antibody, IgG1, IgG1 lambda) heavy: not shown light: QSALTQPRSVSGSPGQSVTISCTGTSSDVGGYNYVSWYQQHPGKAPKLMIYDVSKRPSGVPDRFSGSKSGNTASLTISGLQAEDEADYYCSSYADSVVFGGGTKVTVLGQPKAAPSVTLFPPSSEELQANKATLVCLISDFYPGAVTVAWKADSSPVKAGVETTTPSKQSNNKYAASSYLSLTPEQWKSHKSYSCQVTHEGSTVEKTVAPTECS | – | 82 | 1020 | – | – | 4.5 | –
4 | 3903E11 (VH1.1, VL1.3) (antibody, IgG1, IgG1 lambda) heavy: not shown light: QSALTQPRSVSGSPGQSVTISCTGTSSDVGGYNYVSWYQQHPGKAPKLMIYDVSKRPSGVPDRFSGSKSGNTASLTISGLQAEDEADYYCSSYADSVVFGGGTKVTVLGQPKAAPSVTLFPPSSEELQANKATLVCLISDFYPGAVTVAWKADSSPVKAGVETTTPSKQSNNKYAASSYLSLTPEQWKSHKSYSCQVTHEGSTVEKTVAPTECS | – | – | – | – | – | 7.4 | 22.3
5 | 3903E11 (VH1.2, VL1.2) (antibody, human IgG1, lambda, IgG1 lambda) heavy: not shown light: SYELTQPRSVSGSPGQSVTISCTGTSSDVGGYNYVSWYQQHPGKAPKLMIYDVSKRPSGVPDRFSGSKSGNTASLTISGLQAEDEADYYCSSYADSVVFGGGTKVTVLGQPKAAPSVTLFPPSSEELQANKATLVCLISDFYPGAVTVAWKADSSPVKAGVETTTPSKQSNNKYAASSYLSLTPEQWKSHKSYSCQVTHEGSTVEKTVAPTECS | – | 114 | 1300 | 1900 | – | 1.6 | 6.3
6 | 3903E11 (VH1.3, VL1.2) (antibody, human IgG1, lambda, IgG1 lambda) heavy: not shown light: SYELTQPRSVSGSPGQSVTISCTGTSSDVGGYNYVSWYQQHPGKAPKLMIYDVSKRPSGVPDRFSGSKSGNTASLTISGLQAEDEADYYCSSYADSVVFGGGTKVTVLGQPKAAPSVTLFPPSSEELQANKATLVCLISDFYPGAVTVAWKADSSPVKAGVETTTPSKQSNNKYAASSYLSLTPEQWKSHKSYSCQVTHEGSTVEKTVAPTECS | – | 87 | 958 | – | – | 6 | 19.9
7 | 3903E11 (VH1.2, VL1.0) (antibody, human IgG1, lambda, IgG1 lambda) heavy: not shown light: SYELTQPRSVSGSPGQSVTISCTGTSSDVGGYNYVSWYQQHPGKAPKLMIFDVSKRPSGVPDRFSGSKSGNTASLTISGLQAEDEADYYCSSYADSVVFGGGTKVTVLGQPKAAPSVTLFPPSSEELQANKATLVCLISDFYPGAVTVAWKADSSPVKAGVETTTPSKQSNNKYAASSYLSLTPEQWKSHKSYSCQVTHEGSTVEKTVAPTECS | – | 156 | 1510 | 1950 | 0.62 | 2.2 | 5.5
8 | 3903E11 (VH1.3, VL1.1) (antibody, human IgG1, lambda, IgG1 lambda) heavy: not shown light: QSALTQPRSVSGSPGQSVTISCTGTSSDVGGYNYVSWYQQHPGKAPKLMIFDVSKRPSGVPDRFSGSKSGNTASLTISGLQAEDEADYYCSSYADSVVFGGGTKVTVLGQPKAAPSVTLFPPSSEELQANKATLVCLISDFYPGAVTVAWKADSSPVKAGVETTTPSKQSNNKYAASSYLSLTPEQWKSHKSYSCQVTHEGSTVEKTVAPTECS | – | 105 | 1050 | – | – | 4.7 | 19.5
9 | 3903E11 (VH1.0, VL1.2) (antibody, human IgG1, lambda, IgG1 lambda) heavy: not shown light: SYELTQPRSVSGSPGQSVTISCTGTSSDVGGYNYVSWYQQHPGKAPKLMIYDVSKRPSGVPDRFSGSKSGNTASLTISGLQAEDEADYYCSSYADSVVFGGGTKVTVLGQPKAAPSVTLFPPSSEELQANKATLVCLISDFYPGAVTVAWKADSSPVKAGVETTTPSKQSNNKYAASSYLSLTPEQWKSHKSYSCQVTHEGSTVEKTVAPTECS | – | 140 | 1340 | 1930 | – | 3.4 | 8.6
10 | 3903E11 (VH1.3, VL1.0) (antibody, human IgG1, lambda, IgG1 lambda) heavy: not shown light: SYELTQPRSVSGSPGQSVTISCTGTSSDVGGYNYVSWYQQHPGKAPKLMIFDVSKRPSGVPDRFSGSKSGNTASLTISGLQAEDEADYYCSSYADSVVFGGGTKVTVLGQPKAAPSVTLFPPSSEELQANKATLVCLISDFYPGAVTVAWKADSSPVKAGVETTTPSKQSNNKYAASSYLSLTPEQWKSHKSYSCQVTHEGSTVEKTVAPTECS | – | 105 | 957 | – | – | 6.4 | 19.3
11 | 3903E11 (VH1.2, VL1.1) (antibody, human IgG1, lambda, IgG1 lambda) heavy: not shown light: QSALTQPRSVSGSPGQSVTISCTGTSSDVGGYNYVSWYQQHPGKAPKLMIFDVSKRPSGVPDRFSGSKSGNTASLTISGLQAEDEADYYCSSYADSVVFGGGTKVTVLGQPKAAPSVTLFPPSSEELQANKATLVCLISDFYPGAVTVAWKADSSPVKAGVETTTPSKQSNNKYAASSYLSLTPEQWKSHKSYSCQVTHEGSTVEKTVAPTECS | – | 148 | 1400 | 1930 | 0.52 | 1.8 | 5.6
12 | 3903E11 (VH1.0, VL1.3) (antibody, IgG1, IgG1 lambda) heavy: not shown light: QSALTQPRSVSGSPGQSVTISCTGTSSDVGGYNYVSWYQQHPGKAPKLMIYDVSKRPSGVPDRFSGSKSGNTASLTISGLQAEDEADYYCSSYADSVVFGGGTKVTVLGQPKAAPSVTLFPPSSEELQANKATLVCLISDFYPGAVTVAWKADSSPVKAGVETTTPSKQSNNKYAASSYLSLTPEQWKSHKSYSCQVTHEGSTVEKTVAPTECS | – | 162 | 1540 | 1930 | – | 2.7 | 6.7
13 | 3903E11 (VH1.1, VL1.1) (antibody, human IgG1, lambda, IgG1 lambda) heavy: not shown light: QSALTQPRSVSGSPGQSVTISCTGTSSDVGGYNYVSWYQQHPGKAPKLMIFDVSKRPSGVPDRFSGSKSGNTASLTISGLQAEDEADYYCSSYADSVVFGGGTKVTVLGQPKAAPSVTLFPPSSEELQANKATLVCLISDFYPGAVTVAWKADSSPVKAGVETTTPSKQSNNKYAASSYLSLTPEQWKSHKSYSCQVTHEGSTVEKTVAPTECS | – | 154 | 1390 | – | – | 7.6 | 17.9
